Test results published in CN110713539A.

Molecular target: CEA抗原 (癌胚抗原, Carcinoembrynio Antigen), soluble antigen (UniProt P06731)
Assay: SPR (Biacore), antibody immobilised on chip, antigen in solution, 1:1 binding

Sequence of UniProt P06731 (P06731 35-685 limits assumed): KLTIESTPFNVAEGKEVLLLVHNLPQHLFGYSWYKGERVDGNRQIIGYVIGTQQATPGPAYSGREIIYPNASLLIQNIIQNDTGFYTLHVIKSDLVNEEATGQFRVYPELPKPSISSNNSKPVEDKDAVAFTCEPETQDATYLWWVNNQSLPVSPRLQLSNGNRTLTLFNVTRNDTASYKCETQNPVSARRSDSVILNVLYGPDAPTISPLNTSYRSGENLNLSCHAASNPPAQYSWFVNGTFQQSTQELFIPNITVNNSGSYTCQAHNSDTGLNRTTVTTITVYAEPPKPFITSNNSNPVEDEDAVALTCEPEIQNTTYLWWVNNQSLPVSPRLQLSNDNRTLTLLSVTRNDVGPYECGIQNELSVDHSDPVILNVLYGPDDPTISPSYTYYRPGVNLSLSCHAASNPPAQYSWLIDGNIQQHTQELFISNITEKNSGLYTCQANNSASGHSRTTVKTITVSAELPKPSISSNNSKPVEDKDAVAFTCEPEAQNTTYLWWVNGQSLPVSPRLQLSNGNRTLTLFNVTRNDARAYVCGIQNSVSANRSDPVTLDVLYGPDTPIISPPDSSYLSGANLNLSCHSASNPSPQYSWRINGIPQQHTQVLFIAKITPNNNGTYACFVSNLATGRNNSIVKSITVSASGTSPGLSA

B1: OLD-2ND-3-H6-scFv-mIgG1 (Fc fusion, part only; not given: linker and mouse Fc tag, not shown: a dimerising Fc or GST)
chain, part: ETTLTQSPGTLSLSPGERATLSCRASQSVNNNFLGWYQQRVGQAPRLLIYGASSRATGIPDRFSGSGSGTDFTLTISRLEPEDFAVYYCQQYGSSPLTFGGGTKVEIKMAQVQLQESGGGSVQPGGSLRLSCAASGFTFSSYAMSWVRQAPGKGLEWVSHISGSGGNTYYADSVKGRFTISRDNSKNTLYLQMNSLRAEDTAVYYCAKSWGSSNYGTFDIWGQGTVVTVSS
B1 was tested, and the Kd was 43.1 nM, the koff was 0.0111 s⁻¹ and the kon was 259000 M⁻¹ s⁻¹.
